Assay results: US20190062438A1 (CSL, published 2019)
Substitutions are numbered along the chain they refer to.

T1: soluble Homo sapiens CD131 comprising a C-terminal 6xHis tag (human, UniProt P32927 17-438)
T1 construct: truncated after Ser438, C-terminal 6xHis; also called shCD131; shβc
T1 sequence: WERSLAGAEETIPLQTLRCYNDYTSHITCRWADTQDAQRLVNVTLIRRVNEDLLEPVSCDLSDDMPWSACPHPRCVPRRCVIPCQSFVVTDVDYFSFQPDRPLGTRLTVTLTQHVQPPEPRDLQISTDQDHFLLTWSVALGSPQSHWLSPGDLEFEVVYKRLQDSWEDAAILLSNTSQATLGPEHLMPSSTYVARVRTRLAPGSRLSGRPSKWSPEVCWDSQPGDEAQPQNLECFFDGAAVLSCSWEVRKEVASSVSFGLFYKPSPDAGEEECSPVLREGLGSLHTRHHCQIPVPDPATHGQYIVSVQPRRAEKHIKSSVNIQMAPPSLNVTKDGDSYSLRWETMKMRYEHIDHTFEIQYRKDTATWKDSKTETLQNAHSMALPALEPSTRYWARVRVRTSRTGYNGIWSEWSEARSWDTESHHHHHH

B1: 9A2-VR24.10 Fab (Fab, V domains shown)
VH: EVQLLESGGGLVQPGGSLRLSCAASGFTFPWYRVHWVRQAPGKGLEWVSSIHTGSQWTYYADSVKGRFTISRDNSKNTLYLQMNSLRAEDTAVYYCARFYDSFFDIWGQGTMVTVSS
VL: DIQMTQSPSSVSASVGDRVTITCRASQGISSWLAWYQQKPGKAPKLLIYAASSLQSGVPSRFSGSGSGTDFTLTISSLQPEDFATYYCQQANSFPITFGQGTRLEIKR
notes: recombinant Fab
B2: 9A2-VR24.44 Fab (Fab, V domains shown)
VH: B1 VH with H52R, T53S, G54S, S55G, Q56G, W57F, T58P, A61H, D62P
VL: B1 VL
notes: recombinant Fab
B3: 9A2-VR39.93 Fab (Fab, V domains shown)
VH: EVQLLESGGGLVQPGGSLRLSCAASGFTFSHYHMLWVRQAPGKGLEWVSSINGRGRVTYYNPAWKKRFTISRDNSKNTLYLQMNSLRAEDTAVYYCARFYDSFFDIWGQGTMVTVSS
VL: B1 VL
notes: recombinant Fab
B4: 9A2-VR24.56 Fab (Fab, V domains shown)
VH: B1 VH with H52R, T53S, G54S, S55G, Q56G, W57F, A61N, D62P, S63A, K65R
VL: B1 VL
notes: recombinant Fab
B5: 9A2-VR24.81 Fab (Fab, V domains shown)
VH: B1 VH with G54H, S55R, Q56N, W57Y
VL: B1 VL
notes: recombinant Fab
B6: 9A2-VR24.124 Fab (Fab, V domains shown)
VH: B1 VH with H52R, T53S, G54S, S55G, Q56G, W57F, A61T, D62P, K65R
VL: B1 VL
notes: recombinant Fab
B7: 9A2-VR24.97 Fab (Fab, V domains shown)
VH: B1 VH with H52R, T53S, G54S, S55G, Q56G, W57F, T58P, A61S, D62L
VL: B1 VL
notes: recombinant Fab
B8: 9A2-VR24.84 Fab (Fab, V domains shown)
VH: B1 VH with G54H, S55R, Q56P
VL: B1 VL
notes: recombinant Fab
B9: 9A2-VR39.17 Fab (Fab, V domains shown)
VH: B3 VH with S30P, H31F, M34K, L35V, N61A, P62D, A63S, W64V, K66G
VL: B1 VL
notes: recombinant Fab
B10: 9A2-VR24.102 Fab (Fab, V domains shown)
VH: B1 VH with H52R, T53S, G54S, S55G, Q56G, W57F, T58P, Y59F, A61N, D62S
VL: B1 VL
notes: recombinant Fab
B11: 9A2-VR39.02 Fab (Fab, V domains shown)
VH: B3 VH with S30Y, H31W, L35I, N61A, P62D, A63S, W64V, K66G
VL: B1 VL
notes: recombinant Fab
B12: 9A2-VR39.177 Fab (Fab, V domains shown)
VH: B3 VH with N61A, P62L, A63E, W64Y
VL: B1 VL
notes: recombinant Fab
B13: 9A2-VR24.27 Fab (Fab, V domains shown)
VH: B1 VH with H52R, T53S, G54S, S55G, Q56G, W57F, T58P, A61H, D62Q, S63K
VL: B1 VL
notes: recombinant Fab
B14: 9A2-VR39.24 Fab (Fab, V domains shown)
VH: B3 VH with S30H, Y32F, M34V, L35I, N61A, P62D, A63S, W64V, K66G
VL: B1 VL
notes: recombinant Fab
B15: 9A2-VR24.91 Fab (Fab, V domains shown)
VH: B1 VH with G54H, S55R, W57V
VL: B1 VL
notes: recombinant Fab
B16: 9A2-VR24.57 Fab (Fab, V domains shown)
VH: B1 VH with H52R, T53S, G54S, S55G, Q56G, W57F, A61N, D62P, S63K, G66H
VL: B1 VL
notes: recombinant Fab
B17: 9A2-VR39.110 Fab (Fab, V domains shown)
VH: B3 VH with S30V, H31W, M34H, L35I, N61A, P62D, A63S, W64V, K66G
VL: B1 VL
notes: recombinant Fab
B18: 9A2-VR39.109 Fab (Fab, V domains shown)
VH: B3 VH with S30M, H31W, M34H, L35I, N61A, P62D, A63S, W64V, K66G
VL: B1 VL
notes: recombinant Fab
B19: 9A2-VR24.111 Fab (Fab, V domains shown)
VH: EVQLLESGGGLVQPGGSLRLSCAASGFTFPWYRVHWVRQAPGKGLEWVSSIRSSGGFPMYNPHVKGRFTISRDNSKNTLYLQMNSLRAEDTAVYYCARFYDSFFDIWGQGTMVTVSS
VL: B1 VL
notes: recombinant Fab
B20: 9A2-VR39.01 Fab (Fab, V domains shown)
VH: B3 VH with S30F, H31W, Y32F, M34H, L35V, N61A, P62D, A63S, W64V, K66G
VL: B1 VL
notes: recombinant Fab
B21: 9A2-VR39.04 Fab (Fab, V domains shown)
VH: EVQLLESGGGLVQPGGSLRLSCAASGFTFNWFQHIWVRQAPGKGLEWVSSINGRGRVTYYADSVKGRFTISRDNSKNTLYLQMNSLRAEDTAVYYCARFYDSFFDIWGQGTMVTVSS
VL: B1 VL
notes: recombinant Fab
B22: 9A2-VR24.33 Fab (Fab, V domains shown)
VH: B19 VH with M59Y, P62H, H63K
VL: B1 VL
notes: recombinant Fab
B23: 9A2-VR24.30 Fab (Fab, V domains shown)
VH: B19 VH with M59Y, P62R, H63R
VL: B1 VL
notes: recombinant Fab
B24: 9A2-VR24.98 Fab (Fab, V domains shown)
VH: B19 VH with M59H, P62S, H63V
VL: B1 VL
notes: recombinant Fab
B25: 9A2-VR39.22 Fab (Fab, V domains shown)
VH: B21 VH with N30Q, F32Y, Q33H, H34V
VL: B1 VL
notes: recombinant Fab
B26: 9A2-VR24.107 Fab (Fab, V domains shown)
VH: B19 VH with M59Y, H63F
VL: B1 VL
notes: recombinant Fab
B27: 9A2-VR24.122 Fab (Fab, V domains shown)
VH: B19 VH with P58T, M59Y, P62S, H63E
VL: B1 VL
notes: recombinant Fab
B28: 9A2-VR24.110 Fab (Fab, V domains shown)
VH: B19 VH with M59Y, P62N
VL: B1 VL
notes: recombinant Fab
B29: 9A2-VR24.55 Fab (Fab, V domains shown)
VH: B19 VH with P58T, M59Y, H63S, G66N
VL: B1 VL
notes: recombinant Fab

target: T1, soluble Homo sapiens CD131 comprising a …; experiment: SPR, Fab over captured shCD131
Method: Binding kinetics were measured using SPR with a BIAcore™ A-100 instrument (GE Healthcare Life Sciences). An anti-C-terminal Hexa-His antibody (3H3) was immobilized on spots 1, 2, 4 and 5 of each flow cell of a CM-5 sensor chip (GE Healthcare Life Sciences) using amine-coupling chemistry (116). […] As shβc is a dimer, kinetics assays were performed with shβc captured on the sensor surface, and purified Fab injected as the analyte. Avidity effects were avoided by the use of Fab rather than whole IgG.
shCD131 was captured on spots 1 and 5 of each flow cell for 2 minutes at a concentration of 0.4 μg/ml. […] For some analysis purified Fab was injected over each flow cell for 3 minutes and dissociation was monitored for a further 10 minutes. Regeneration of the surface was performed after each cycle with a 40 second injection of 25 mM glycine, pH 2.0. The analysis was performed with Fabs at several concentrations between 100 and 0.31 nM, with each concentration analyzed twice and in random order. The analysis was performed at a flow rate of 30 μl/min in HBS-EP buffer (10 mM Hepes, 150 mM NaCl, 3 mM EDTA, 0.005% Tween 20, pH 7.4) at 37° C. Responses from spots 2 and 4 of each flow cell, (in which shβc was not captured, but otherwise treated identically), were subtracted from those of spots 1 and 5 respectively to produce reference subtracted data. Reference subtracted responses from a blank injection comprising buffer alone were subtracted from the resultant sensorgrams to produce double referenced data suitable for kinetic analysis. Double-referenced sensorgrams were fitted using non-linear regression to a model describing 1:1 kinetics, including a term for mass transport limitation. The Rₘₐₓ value was fitted locally to account for slight deviations in the level of sCD131 captured, with association rate (kₐ), dissociation rate (kd) and equilibrium dissociation constant (KD) fitted globally.

| Kd [nM] | koff [s⁻¹] | kon [M⁻¹ s⁻¹] | Binder |
| --- | --- | --- | --- |
| 0.372 | 0.00055 | 1.48e+06 | B1 |
| 0.163 | 0.000488 | 3e+06 | B2 |
| 0.171 | 0.00071 | 4.15e+06 | B3 |
| 0.353 | 0.000997 | 2.82e+06 | B4 |
| 0.173 | 0.000492 | 2.85e+06 | B5 |
| 0.25 | 0.00076 | 2.9e+06 | B6 |
| 0.16 | 0.000524 | 3.2e+06 | B7 |
| 0.106 | 0.000418 | 3.95e+06 | B8 |
| 0.201 | 0.000566 | 2.81e+06 | B9 |
| 0.188 | 0.000556 | 2.95e+06 | B10 |
| 0.0877 | 0.000341 | 3.89e+06 | B11 |
| 0.15 | 0.000554 | 3.69e+06 | B12 |
| 0.17 | 0.000527 | 3.1e+06 | B13 |
| 0.169 | 0.0005 | 2.96e+06 | B14 |
| 0.161 | 0.000448 | 2.78e+06 | B15 |
| 0.211 | 0.000841 | 4e+06 | B16 |
| 0.11 | 0.00039 | 3.8e+06 | B17 |
| 0.098 | 0.00033 | 3.4e+06 | B18 |
| 0.236 | 0.000637 | 2.7e+06 | B19 |
| 0.102 | 0.00031 | 3.04e+06 | B20 |
| 0.329 | 0.00117 | 3.55e+06 | B21 |
| 0.149 | 0.000472 | 3.16e+06 | B22 |
| 0.122 | 0.000464 | 3.8e+06 | B23 |
| 0.174 | 0.000559 | 3.21e+06 | B24 |
| 0.141 | 0.000441 | 3.13e+06 | B25 |
| 0.183 | 0.00053 | 2.89e+06 | B26 |
| 0.353 | 0.000897 | 2.54e+06 | B27 |
| 0.151 | 0.000475 | 3.15e+06 | B28 |
| 0.369 | 0.000942 | 2.55e+06 | B29 |
